Results on two variants are retold here after paper PMC4944284.

B1: unnamed (parent)
chain: MPGFYEIVIKVPSDLDGHLPGISDSFVNWVAEKEWELPPDSDMDLNLIEQAPLTVAEKLQRDFLTEWRRVSKAPEALFFVQFEKGESYFHMHVLVETTGVKSMVLGRFLSQIREKLIQRIYRGIEPTLPNWFAVTKTRNGAGGGNKVVDESYIPNYLLPKTQPELQWAWTNMEQYLSACLNLTERKRLVAQHLTHVSQTQEQNKENQNPNSDAPVIRSKTSARYMELVGWLVDKGITSEKQWIQEDQASYISFNAASNSRSQIKAALDNAGKIMSLTKTAPDYLVGQQPVEDISSNRIYKILELNGYDPQYAASVFLGWATKKFGKRNTIWLFGPATTGKTNIAEAIAHTVPFYGCVNWTNENFPFNDCVDKMVIWWEEGKMTAKVVESAKAILGGSKVRVDQKCKSSAQIDPTPVIVTSNTNMCAVIDGNSTTFEHQQPLQDRMFKFELTRRLDHDFGKVTKQEVKDFFRWAKDHVVEVEHEFYVKKGGAKKRPAPSDADISEPKRVRESVAQPSTSDAEASINYADRLARGHSL

The assay covers variants of B1. Description: sedimentation velocity (analytical ultracentrifugation), self-association. To be noted: with partner chain of the complex shown; parent: 1; read off a plot.
For the variant MPGFYEIVIKVPSDLDGHLPGISDSFVNWVAEKEWELPPDSDMDLNLIEQAPLTVAEKLQRDFLTEWRRVSKAPEALFFVQFEKGESYFHMHVLVETTGVKSMVLGRFLSQIREKLIQRIYRGIEPTLPNWFAVTKTRNGAGGGNKVVDESYIPNYLLPKTQPELQWAWTNMEQYLSACLNLTERKRLVAQHLTHVSQTQEQNKENQNPNSDAPVIRSKTSARDMELVGWLVDKGITSEKQWIQEDQASYISFNAASNSRSQIKAALDNAGKIMSLTKTAPDYLVGQQPVEDISSNRIYKILELNGYDPQYAASVFLGWATKKFGKRNTIWLFGPATTGKTNIAEAIAHTVPFYGCVNWTNENFPFNDCVDKMVIWWEEGKMTAKVVESAKAILGGSKVRVDQKCKSSAQIDPTPVIVTSNTNMCAVIDGNSTTFEHQQPLQDRMFKFELTRRLDHDFGKVTKQEVKDFFRWAKDHVVEVEHEFYVKKGGAKKRPAPSDADISEPKRVRESVAQPSTSDAEASINYADRLARGHSL [chain 1 Y224D], the ratio to parent was found to be 0.1. With MPGFYEIVIKVPSDLDGHLPGISDSFVNWVAEKEWELPPDSDMDLNLIEQAPLTVAEKLQRDFLTEWRRVSKAPEALFFVQFEKGESYFHMHVLVETTGVKSMVLGRFLSQIREKLIQRIYRGIEPTLPNWFAVTKTRNGAGGGNKVVDESYIPNYLLPKTQPELQWAWTNMEQYLSACLNLTERKRLVAQHLTHVSQTQEQNKENQNPNSDAPVIRSKTSARFMELVGWLVDKGITSEKQWIQEDQASYISFNAASNSRSQIKAALDNAGKIMSLTKTAPDYLVGQQPVEDISSNRIYKILELNGYDPQYAASVFLGWATKKFGKRNTIWLFGPATTGKTNIAEAIAHTVPFYGCVNWTNENFPFNDCVDKMVIWWEEGKMTAKVVESAKAILGGSKVRVDQKCKSSAQIDPTPVIVTSNTNMCAVIDGNSTTFEHQQPLQDRMFKFELTRRLDHDFGKVTKQEVKDFFRWAKDHVVEVEHEFYVKKGGAKKRPAPSDADISEPKRVRESVAQPSTSDAEASINYADRLARGHSL [chain 1 Y224F] the figure was 0.69.
